Source: article PMC4363072
pKd: −log10 of the molar value.

Target: GST-BS69_(50-401) FW point mutant (F293A, W294A) (human) (UniProt Q15326)
Test: MST

Sequence of GST-BS69_(50-401) FW point mutant (F293A, W294A) (human) (Q15326 50-401 F293A/W294A): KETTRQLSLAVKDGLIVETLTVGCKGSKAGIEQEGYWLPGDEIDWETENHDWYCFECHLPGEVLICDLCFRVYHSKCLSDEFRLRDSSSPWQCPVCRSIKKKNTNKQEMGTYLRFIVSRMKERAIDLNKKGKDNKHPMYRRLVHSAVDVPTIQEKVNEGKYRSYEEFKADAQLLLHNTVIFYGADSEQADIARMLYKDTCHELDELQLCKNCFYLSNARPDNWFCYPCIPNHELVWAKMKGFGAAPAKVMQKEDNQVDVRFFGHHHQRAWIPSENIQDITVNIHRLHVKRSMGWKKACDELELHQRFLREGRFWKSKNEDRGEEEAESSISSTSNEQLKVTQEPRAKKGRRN

pKd: 3.56
Substance: H3.3K36me3 peptide
